The values that follow come from patent publication US20200123260A1 (Pfizer, published 2020).

Values joined by “and” are separate entries in the source; they are usually repeats but may differ in a detail not shown here. Identical values can stand only once.

Experiment [1] deals with T1, Recombinant human IL13 (R&D Systems) (human, UniProt P35225 35-146, limits assumed). The experiment in a line: SPR stoichiometry, antibody captured on protein A.
Experiment [2] concerns the target T2, Recombinant human CCL20 (Peprotech) (human, UniProt P78556 27-96). Kind of experiment: SPR stoichiometry, Ab captured on protein A, cytokine at saturation, N = 1.
The target of experiment [3] is T2, Recombinant human CCL20 (Peprotech). The experiment in a line: SPR stoichiometry, Ab captured on protein A, cytokine at saturation, N = 2.
Experiment [4] deals with T1, Recombinant human IL13 (R&D Systems). The experiment is described as above.
Experiment [5] concerns the target T3, mouse TrkB (nm_001025074) on HEK293 cells (mouse, UniProt P15209 32-821).
T3 construct: whole, on cells; also called rmuTrkB-CRE
Kind of experiment: cell-based ELISA on transfected 293 cells. Background: ELISA stands for enzyme-linked immunosorbent assay.

In experiment [6] the target is T4, TrkB, Cat (Felis domesticus) on 293 cells (cat (Felis domesticus)).
T4 construct: Whole entry with signal peptide; also called cat TrkB
The experiment in a line: cell-based ELISA on transfected 293 cells.

Experiment [7] addresses T5, human TrkB (open reading frame from nm_006180) on HEK293 cells (human, UniProt Q16620 32-822). Kind of experiment: cell-based or functional assay.
Experiment [8] deals with hTrkB-a isoform fused to a small peptide epitope, in U2OS cells (Discoverx Pathhunter) (human, UniProt Q16620 32-822). Kind of experiment: cell-based or functional assay.
Experiment [9] has as its target hTrkC in the SHC1 recruitment assay (U2OS, Discoverx Pathhunter) (human, UniProt Q16288 32-839). Kind of experiment: cell-based or functional assay.
Experiment [10] has as its target hTrkA in the SHC1 recruitment assay (U2OS, Discoverx Pathhunter) (human, UniProt P04629 33-796). The experiment in a line: cell-based or functional assay.
In experiment [11] the target is T6, human p75NTR (open reading frame from NM_002507) on HEK293 cells (human, UniProt P08138 29-427).
T6 construct: whole, on cells; also called hu p75NTR
T6 sequence (looked up): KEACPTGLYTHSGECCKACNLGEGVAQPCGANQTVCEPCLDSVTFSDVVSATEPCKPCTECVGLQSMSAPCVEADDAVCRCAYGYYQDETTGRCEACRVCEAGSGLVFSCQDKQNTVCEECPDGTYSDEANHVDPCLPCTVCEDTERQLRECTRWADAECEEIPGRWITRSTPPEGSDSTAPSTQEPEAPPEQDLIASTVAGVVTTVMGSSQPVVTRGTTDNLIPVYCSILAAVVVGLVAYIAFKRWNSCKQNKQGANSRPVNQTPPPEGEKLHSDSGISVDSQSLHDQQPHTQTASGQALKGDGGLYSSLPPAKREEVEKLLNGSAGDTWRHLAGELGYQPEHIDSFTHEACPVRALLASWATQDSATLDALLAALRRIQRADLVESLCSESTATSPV
The experiment in a line: FACS on transiently transfected HEK293 cells, FITC-labeled mouse anti-human IgG.

Experiment [12] deals with T5, human TrkB (open reading frame from …). The experiment in a line: cell-based or functional assay. This is another data set of the same source.
Experiment [13] deals with T3, mouse TrkB (nm_001025074) on HEK293 …. Kind of experiment: cell-based ELISA on transiently transfected HEK293 cells.
For experiment [14], the target named is T4, TrkB, Cat (Felis domesticus) on 293 …. The experiment is described as above.
Another experiment deals with T7, Chimeric TrkB (d4TrkA) (human).
T7 construct: TrkB residues 190-282 replaced by TrkA residues 187-281
The experiment in a line: cell-based ELISA on transfected 293 cells.

In another experiment the target is T8, rhTrkB-ECD-His (human, UniProt Q16620 32-430).
T8 construct: extracellular domain
The experiment in a line: competition ELISA: plate coated with rhTrkB-ECD-His; biotinylated humanized TOA-1 at 25 ng/ml mixed with unlabeled huTOA-1; streptavidin-HRP.

Experiment [15] has as its target T9, recombinant human TrkC-Fc (rhTrkC-ECD, R&D system, 373-TC/TF) (human, UniProt Q16288 32-429).
T9 construct: extracellular domain; Bought protein; not shown: Fc part, not described
The experiment in a line: direct binding ELISA: plate coated with rhTrkC-ECD (Fc chimera) at 5 ug/ml, biotinylated antibody, streptavidin-HRP.

Experiment [16] concerns the target T10, Mouse TrkB ectodomain protein (R&D #1494-TB/CF) (mouse, UniProt P15209 32-429).
T10 construct: extracellular domain; Bought protein; also called mouse TrkB-extracellular domain protein
Kind of experiment: SPR (Biacore), TrkB ectodomain immobilised on CM5, antibody injected. On the technique in general: SPR reads the build-up and loss of mass on a sensor chip optically.

Experiment [17] has as its target T11, rhTrkB-ECD (R&D #397-TR/CF) (human, UniProt Q16620 32-430).
T11 construct: extracellular domain; Bought protein; also called human TrkB-extracellular domain protein; human TrkB ectodomain protein
The description is as above.

For experiment [18], the target named is T11, rhTrkB-ECD (R&D #397-TR/CF). Kind of experiment: competition ELISA: plate coated with rhTrkB-ECD; biotinylated chimeric TOA-1 at 25 ng/ml mixed with the unlabeled antibody; streptavidin-HRP.

T2 sequence (P78556 27-96 limits assumed): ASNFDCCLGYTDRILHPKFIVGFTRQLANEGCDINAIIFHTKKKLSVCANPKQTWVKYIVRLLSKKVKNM
T5 sequence (Q16620 32-822): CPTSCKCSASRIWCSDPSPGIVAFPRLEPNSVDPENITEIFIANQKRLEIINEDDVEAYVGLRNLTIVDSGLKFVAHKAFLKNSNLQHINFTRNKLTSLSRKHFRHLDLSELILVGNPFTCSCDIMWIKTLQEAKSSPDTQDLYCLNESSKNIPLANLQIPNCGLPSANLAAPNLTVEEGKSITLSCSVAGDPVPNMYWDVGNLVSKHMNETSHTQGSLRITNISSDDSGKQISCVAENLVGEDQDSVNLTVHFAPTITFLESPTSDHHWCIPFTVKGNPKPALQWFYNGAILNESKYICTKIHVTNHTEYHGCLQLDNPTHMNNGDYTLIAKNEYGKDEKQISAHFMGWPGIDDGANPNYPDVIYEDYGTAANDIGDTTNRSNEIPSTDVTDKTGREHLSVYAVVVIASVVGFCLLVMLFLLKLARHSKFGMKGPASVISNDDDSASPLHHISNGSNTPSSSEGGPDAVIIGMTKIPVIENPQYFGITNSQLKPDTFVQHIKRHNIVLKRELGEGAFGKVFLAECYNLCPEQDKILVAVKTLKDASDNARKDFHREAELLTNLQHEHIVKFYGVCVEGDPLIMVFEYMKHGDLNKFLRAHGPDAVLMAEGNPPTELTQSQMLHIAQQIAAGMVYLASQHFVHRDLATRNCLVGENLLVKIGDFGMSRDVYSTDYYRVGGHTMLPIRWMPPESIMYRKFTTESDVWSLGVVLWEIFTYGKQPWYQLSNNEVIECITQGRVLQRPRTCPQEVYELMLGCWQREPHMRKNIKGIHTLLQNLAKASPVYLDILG
T3 sequence (P15209 32-821): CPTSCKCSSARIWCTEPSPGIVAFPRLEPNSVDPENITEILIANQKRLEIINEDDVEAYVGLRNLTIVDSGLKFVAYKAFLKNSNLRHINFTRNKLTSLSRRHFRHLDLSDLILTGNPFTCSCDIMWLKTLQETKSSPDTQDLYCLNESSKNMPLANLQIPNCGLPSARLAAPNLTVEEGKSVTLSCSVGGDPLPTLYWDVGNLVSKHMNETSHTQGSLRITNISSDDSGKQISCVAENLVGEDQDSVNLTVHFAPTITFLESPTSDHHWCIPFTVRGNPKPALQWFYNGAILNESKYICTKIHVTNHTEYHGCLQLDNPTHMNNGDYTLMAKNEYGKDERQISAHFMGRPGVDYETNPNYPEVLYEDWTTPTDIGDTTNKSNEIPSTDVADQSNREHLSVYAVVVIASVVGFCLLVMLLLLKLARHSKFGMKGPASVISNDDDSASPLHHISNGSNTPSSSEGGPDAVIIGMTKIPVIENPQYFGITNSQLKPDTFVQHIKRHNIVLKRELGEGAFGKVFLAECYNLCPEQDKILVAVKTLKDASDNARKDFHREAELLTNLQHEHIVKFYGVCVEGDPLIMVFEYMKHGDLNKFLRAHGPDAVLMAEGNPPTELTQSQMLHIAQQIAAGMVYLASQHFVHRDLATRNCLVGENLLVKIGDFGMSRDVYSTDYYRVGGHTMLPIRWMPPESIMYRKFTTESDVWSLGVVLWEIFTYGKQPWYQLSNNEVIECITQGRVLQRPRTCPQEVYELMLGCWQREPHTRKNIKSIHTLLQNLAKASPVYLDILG
T1 sequence (P35225 35-146 limits assumed): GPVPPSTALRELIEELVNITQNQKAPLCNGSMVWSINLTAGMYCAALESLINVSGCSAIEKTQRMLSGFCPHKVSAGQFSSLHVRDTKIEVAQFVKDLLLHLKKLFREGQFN
T11 sequence (Q16620 32-430): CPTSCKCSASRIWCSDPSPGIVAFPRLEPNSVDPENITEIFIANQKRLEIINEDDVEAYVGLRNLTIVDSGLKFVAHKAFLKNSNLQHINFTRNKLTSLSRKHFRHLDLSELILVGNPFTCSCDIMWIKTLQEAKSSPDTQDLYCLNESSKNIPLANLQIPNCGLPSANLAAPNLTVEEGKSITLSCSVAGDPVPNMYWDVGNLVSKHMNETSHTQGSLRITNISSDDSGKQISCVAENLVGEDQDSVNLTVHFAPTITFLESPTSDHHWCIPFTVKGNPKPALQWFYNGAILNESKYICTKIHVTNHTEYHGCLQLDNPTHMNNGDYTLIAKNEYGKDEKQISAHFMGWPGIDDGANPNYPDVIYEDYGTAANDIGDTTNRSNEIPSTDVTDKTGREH
Sequence of hTrkB-a isoform fused to a small peptide epitope, in U2OS cells (Discoverx Pathhunter) (Q16620 32-430): as above
T4 sequence (chain, as listed by the source limits assumed): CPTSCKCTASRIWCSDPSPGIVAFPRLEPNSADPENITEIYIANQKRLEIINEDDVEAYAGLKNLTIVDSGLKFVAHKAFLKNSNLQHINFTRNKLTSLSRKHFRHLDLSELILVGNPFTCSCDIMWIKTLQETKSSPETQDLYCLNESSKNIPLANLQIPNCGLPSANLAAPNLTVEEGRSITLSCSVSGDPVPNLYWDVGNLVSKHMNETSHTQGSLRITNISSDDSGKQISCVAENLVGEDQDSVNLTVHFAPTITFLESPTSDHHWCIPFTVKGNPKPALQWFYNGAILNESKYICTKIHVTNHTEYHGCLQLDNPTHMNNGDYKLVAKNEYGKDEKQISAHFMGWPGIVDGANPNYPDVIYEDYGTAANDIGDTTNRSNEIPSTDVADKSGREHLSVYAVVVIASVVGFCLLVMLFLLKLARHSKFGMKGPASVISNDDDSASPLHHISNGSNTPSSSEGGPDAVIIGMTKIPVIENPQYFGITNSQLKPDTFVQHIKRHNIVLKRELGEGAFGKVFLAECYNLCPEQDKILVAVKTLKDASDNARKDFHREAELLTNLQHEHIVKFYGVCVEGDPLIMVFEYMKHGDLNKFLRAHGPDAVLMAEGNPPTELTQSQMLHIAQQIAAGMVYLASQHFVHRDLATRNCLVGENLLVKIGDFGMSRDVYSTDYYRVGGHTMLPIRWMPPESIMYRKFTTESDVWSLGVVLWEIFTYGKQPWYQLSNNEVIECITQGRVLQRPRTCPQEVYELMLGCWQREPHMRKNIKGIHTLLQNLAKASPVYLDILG
Sequence of hTrkC in the SHC1 recruitment assay (U2OS, Discoverx Pathhunter) (Q16288 32-839): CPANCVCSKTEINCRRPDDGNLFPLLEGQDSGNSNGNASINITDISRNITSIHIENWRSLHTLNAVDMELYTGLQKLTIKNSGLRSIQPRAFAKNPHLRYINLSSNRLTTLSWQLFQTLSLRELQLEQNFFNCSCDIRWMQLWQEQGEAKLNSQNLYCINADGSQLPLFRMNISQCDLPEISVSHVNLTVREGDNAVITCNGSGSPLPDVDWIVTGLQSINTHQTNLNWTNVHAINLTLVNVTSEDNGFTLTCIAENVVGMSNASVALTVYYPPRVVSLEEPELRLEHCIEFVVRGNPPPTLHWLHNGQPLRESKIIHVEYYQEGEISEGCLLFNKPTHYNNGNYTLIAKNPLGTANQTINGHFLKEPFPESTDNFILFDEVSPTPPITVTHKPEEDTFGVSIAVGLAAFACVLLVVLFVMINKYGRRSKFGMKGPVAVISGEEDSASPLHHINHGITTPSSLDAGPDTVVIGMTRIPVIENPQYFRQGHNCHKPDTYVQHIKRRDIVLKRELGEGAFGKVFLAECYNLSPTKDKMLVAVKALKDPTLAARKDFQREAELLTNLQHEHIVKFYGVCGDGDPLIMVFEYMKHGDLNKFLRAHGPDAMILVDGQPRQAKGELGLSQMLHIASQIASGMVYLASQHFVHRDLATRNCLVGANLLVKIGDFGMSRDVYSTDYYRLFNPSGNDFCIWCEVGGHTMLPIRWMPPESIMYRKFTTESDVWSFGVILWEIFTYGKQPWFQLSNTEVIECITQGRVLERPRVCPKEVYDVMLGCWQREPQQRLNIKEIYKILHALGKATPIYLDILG
Sequence of hTrkA in the SHC1 recruitment assay (U2OS, Discoverx Pathhunter) (P04629 33-796): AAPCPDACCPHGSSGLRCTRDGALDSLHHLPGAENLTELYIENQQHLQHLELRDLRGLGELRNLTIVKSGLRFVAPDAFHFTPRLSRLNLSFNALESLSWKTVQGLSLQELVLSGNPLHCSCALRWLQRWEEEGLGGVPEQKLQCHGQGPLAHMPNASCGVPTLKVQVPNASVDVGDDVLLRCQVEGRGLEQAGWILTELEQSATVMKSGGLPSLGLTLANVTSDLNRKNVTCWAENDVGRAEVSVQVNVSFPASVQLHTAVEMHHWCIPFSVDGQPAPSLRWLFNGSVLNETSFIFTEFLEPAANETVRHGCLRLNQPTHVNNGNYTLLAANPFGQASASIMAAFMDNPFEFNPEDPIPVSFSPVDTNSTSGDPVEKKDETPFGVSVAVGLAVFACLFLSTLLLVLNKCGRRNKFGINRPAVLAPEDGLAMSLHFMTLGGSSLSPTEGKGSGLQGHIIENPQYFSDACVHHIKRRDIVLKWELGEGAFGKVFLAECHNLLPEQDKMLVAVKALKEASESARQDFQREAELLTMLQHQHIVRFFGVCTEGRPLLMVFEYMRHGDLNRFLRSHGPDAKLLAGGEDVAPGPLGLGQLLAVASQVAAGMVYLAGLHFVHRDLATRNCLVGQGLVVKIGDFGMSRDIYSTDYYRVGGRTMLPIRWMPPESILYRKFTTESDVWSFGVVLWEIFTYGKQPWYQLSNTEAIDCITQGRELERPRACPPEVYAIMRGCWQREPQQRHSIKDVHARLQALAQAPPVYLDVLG
T8 sequence (Q16620 32-430): as the sequence (Q16620 32-430) above
T10 sequence (P15209 32-429): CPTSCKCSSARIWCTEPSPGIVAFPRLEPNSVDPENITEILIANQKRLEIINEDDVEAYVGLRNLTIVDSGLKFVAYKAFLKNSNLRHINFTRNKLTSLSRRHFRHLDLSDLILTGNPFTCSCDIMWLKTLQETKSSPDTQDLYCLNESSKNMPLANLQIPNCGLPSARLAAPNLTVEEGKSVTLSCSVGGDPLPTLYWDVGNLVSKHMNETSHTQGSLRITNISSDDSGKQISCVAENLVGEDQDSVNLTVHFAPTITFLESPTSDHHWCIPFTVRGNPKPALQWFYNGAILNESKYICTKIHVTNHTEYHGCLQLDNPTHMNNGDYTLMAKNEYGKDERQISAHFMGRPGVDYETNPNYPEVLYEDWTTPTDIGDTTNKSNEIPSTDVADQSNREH

B1: C5 (anti-CCL20 antibody, clone C5, parental) (antibody, human IgG1, kappa, V domains shown)
VH: QVQLVQSGAEVKKPGSSVKVSCKASGGTFSSYAISWVRQAPGQGLEWMGGIIPIFGTANYAQKFQGRVTITADESTSTAYMELSSLRSEDTAVYYCAGGSITGTTPFDYWGRGTLVTVSS
VL: AIQLTQSPSSLTASVGDRVTITCRASQFASNDVGWYQQKPGKAPKLLIYAASSLQSGVPPRFSGSGSGTEFTFTISSLQPEDFATYYCLQDYTYPLTFGQGTKVEIKR
notes: also called anti-CCL20-clone5; CCL20-Clone 5
With B1, in experiment [1], the binding result is reported as “no binding”. Besides, the figures for the “Binding Ratio” value in experiment [2], in experiment [3] and in experiment [4] were 2, 2 and 0, respectively. The results for the “Binding Ratio (measured, before normalisation)” value in [2] and in [3] were 2.15 and 2.18, respectively.

B2: TAM-163 (huTOA-1 v1.0/1.4) (antibody, human IgG1, kappa, V domains shown)
VH: EVQLVESGGGLVQPGGSLRLSCAASGYSFTAYFMNWVRQAPGKGLEWVARINPNNGDTFYTQKFKGRFTISRDNAKNSLYLQMNSLRAEDTAVYYCARRDYFGAMDYWGQGTLVTVSS
VL: DIQMTQSPSSLSASVGDRVTITCRASQTISNNLHWYQQKPGKAPKLLIKSASLAISGVPSRFSGSGSGTDFTLTISSLQPEDFATYYCQQSNSWPNTFGGGTKVEIKR
notes: IgG1 with effector-function ablating CH2; Also used biotinylated; also called humanized TOA-1; Humanized TOA1
As to B2, the EC50 came out at 0.33 nM in [5], 0.52 nM in experiment [6], 0.34 nM in experiment [13] and 0.39 nM in experiment [14]. For the same molecule, the “Cre-luciferase reporter, maximum fold-increase (FIG. 38)” value in [7] came to 5 fold. Also, in [8], the “EC50, SHC1 recruitment assay” value was found to be 0.67 nM. Also, the “Fold-increase, SHC1 recruitment assay” value in experiment [8] worked out at 5.2 fold; in experiment [9], 1 fold; in experiment [10], 1.1 fold. Further, the binding result is “no binding” in [11], “binds” with Chimeric TrkB (d4TrkA) and “no binding (tested: about 6.7 nM)” in [15]. Moreover, the “EC50, hTrkB Cre-luc reporter assay, lot L40042-192” value in experiment [12] is 0.24 nM and 0.39 nM and 0.61 nM. Moreover, the “EC50, hTrkB Cre-luc reporter assay, lot L42385-008” value in experiment [12] was 0.25 nM and 0.37 nM. Besides, in [12], the “EC50, hTrkB Cre-luc reporter assay, lot L42385-024” value stood at 0.13 nM. The “EC50, hTrkB Cre-luc reporter assay, lot L42385-152” value in [12] was 0.1 nM. In [12], the “Fold-increase, hTrkB Cre-luc reporter assay, lot L42385-024” value worked out at 5.3 fold. Besides, the “Fold-increase, hTrkB Cre-luc reporter assay, lot L42385-152” value in experiment [12] amounted to 4.5 fold. Also, the “IC50 (read off the curve)” value was roughly 8 nM in the experiment with rhTrkB-ECD-His and roughly 6 nM in experiment [18]. Besides, the Kd in [16] is 11.4 nM; in experiment [17] it was 9.4 nM.

What is called EC50 is the midpoint of the concentration-response curve. The low end stands for a more potent agent, the high end for a less potent agent. A word on the Kd: it is the constant that tells how readily two partners part at equilibrium. Low readings indicate a tighter complex, high ones a looser complex.
